Reference: US20250382381A1

Molecular target: mouse ART2 (ART2.2) on T cells (mouse) (UniProt O35975)
Test: cell-based or functional assay

mouse ART2 (ART2.2) on T cells (mouse), sequence (O35975 21-260): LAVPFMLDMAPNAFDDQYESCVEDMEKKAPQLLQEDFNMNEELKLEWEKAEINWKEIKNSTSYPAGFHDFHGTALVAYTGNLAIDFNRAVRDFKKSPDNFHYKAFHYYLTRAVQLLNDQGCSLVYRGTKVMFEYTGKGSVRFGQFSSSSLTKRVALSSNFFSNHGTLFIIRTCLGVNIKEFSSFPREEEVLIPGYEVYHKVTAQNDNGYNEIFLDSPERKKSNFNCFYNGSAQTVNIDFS

ART2-blocking nanobody (s+16a) (VHH) showed an ADP-ribosylation of CD4 T cells (eNAD staining, flow cytometry) of 9.3% and an ADP-ribosylation of CD8 T cells (eNAD staining, flow cytometry) of 12.9%.
